From patent US12076390 (Dana-Farber, dated 2024)

Biological target: HA on infectious virus A/Brisbane/10/07 (H3N2-BR07) (influenza A virus A/Brisbane/10/07 …)
Assay: cell-based or functional assay

B1: 3I14 VLD94N IgG1 (antibody, V domains shown)
VH: QVQLLESGGGVVQPGRSLRLSCAASGFTFSNYGMHWVRQAPGKGLEWVAIISFDGSKKYYANSVKGRSTISRDNSKNTLSLQMNSLGPEDTALYYCAKLPSPYYFDSRFVWVAASAFHFWGQGILVTVSS
VL: NFMLTQPPSASGTPGQRVTISCSGSSSNIGGNTVHWFQQLPGTAPKLLIYTNSLRPSGVPDRFSGSKSGTSASLAISGLQSEDEADYYCAAWDNSLNGQVFGGGTKLTVL
  IC50, neutralization of infectious H3-BR07 virus: 0.337 µg/mL
